The target in the experiment is His‐DPF2PHD (residues 270–391) (UniProt Q92785). The experiment can be described thus: ITC; 25 °C, MicroCal PEAQ-ITC; protein in the cell titrated with 19 injections of peptide.
Sequence of His‐DPF2PHD (residues 270–391) (Q92785 270-391): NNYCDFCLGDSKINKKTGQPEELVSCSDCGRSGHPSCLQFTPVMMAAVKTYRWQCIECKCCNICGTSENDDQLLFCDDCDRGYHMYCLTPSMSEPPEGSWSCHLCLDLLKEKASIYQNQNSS

On to “native H3R2 peptide (H3_(1‐15) without diazirine and biotin)”, for which the Kd came to 3.5 µM.

Values taken from publication PMC11005723, “Development of Complementary Photo‐arginine/lysine to Promote Discovery of Arg/Lys hPTMs Interactomes” (Advanced Science, 2024).
